Reference: patent US20150344570A1 (published 2015)

B1: GpH7-A5/GpH7-B3 variant P271_02A/GpL16-k0 (antibody, human IgG1, kappa)
heavy 1: not shown
heavy 2: not shown
light: DIVMTQSPLSLPVTPGEPASISCQASESLVHSNRNTYLHWYLQKPGQSPQLLIYKVSNRFSGVPDRFSGSGSGTDFTLKISRVEAEDVGVYYCSQNTHVPPTFGQGTKVEIERTVAAPSVFIFPPSDEQLKSGTASVVCLLNNFYPREAKVQWKVDNALQSGNSQESVTEQDSKDSTYSLSSTLTLSKADYEKHKVYACEVTHQGLSSPVTKSFNRGEC
notes: heterodimerized IgG1, mutation in one H chain; also called He Ab
B2: GpH7-A5/GpH7-B3 variant E333_01G/GpL16-k0 (antibody, human IgG1, kappa)
heavy 1: not shown
heavy 2: not shown
light: B1 light
notes: as for B1
B3: GpH7-A5/GpH7-B3 variant I336_02A/GpL16-k0 (antibody, human IgG1, kappa)
heavy 1: not shown
heavy 2: not shown
light: B1 light
notes: as for B1
B4: GpH7-A5/GpH7-B3 variant G236_20W/GpL16-k0 (antibody, human IgG1, kappa)
heavy 1: not shown
heavy 2: not shown
light: B1 light
notes: as for B1
B5: GpH7-A5/GpH7-B3 variant A330_08L/GpL16-k0 (antibody, human IgG1, kappa)
heavy 1: not shown
heavy 2: not shown
light: B1 light
notes: as for B1
B6: GpH7-A5/GpH7-B3 variant A327_09D/GpL16-k0 (antibody, human IgG1, kappa)
heavy 1: not shown
heavy 2: not shown
light: B1 light
notes: as for B1
B7: GpH7-A5/GpH7-B3 variant I336_04F/GpL16-k0 (antibody, human IgG1, kappa)
heavy 1: not shown
heavy 2: not shown
light: B1 light
notes: as for B1
B8: GpH7-A5/GpH7-B3 variant E269_06M/GpL16-k0 (antibody, human IgG1, kappa)
heavy 1: not shown
heavy 2: not shown
light: B1 light
notes: as for B1
B9: GpH7-A5/GpH7-B3 variant E333_13S/GpL16-k0 (antibody, human IgG1, kappa)
heavy 1: not shown
heavy 2: not shown
light: B1 light
notes: as for B1
B10: GpH7-A5/GpH7-B3 variant A330_09D/GpL16-k0 (antibody, human IgG1, kappa)
heavy 1: not shown
heavy 2: not shown
light: B1 light
notes: as for B1
B11: GpH7-A5/GpH7-B3 variant I336_01G/GpL16-k0 (antibody, human IgG1, kappa)
heavy 1: not shown
heavy 2: not shown
light: B1 light
notes: as for B1
B12: GpH7-A5/GpH7-B3 variant I336_06M/GpL16-k0 (antibody, human IgG1, kappa)
heavy 1: not shown
heavy 2: not shown
light: B1 light
notes: as for B1
B13: GpH7-A5/GpH7-B3 variant A330_14T/GpL16-k0 (antibody, human IgG1, kappa)
heavy 1: not shown
heavy 2: not shown
light: B1 light
notes: as for B1
B14: GpH7-A5/GpH7-B3 variant E269_04F/GpL16-k0 (antibody, human IgG1, kappa)
heavy 1: not shown
heavy 2: not shown
light: B1 light
notes: as for B1
B15: GpH7-A5/GpH7-B3 variant E269_08L/GpL16-k0 (antibody, human IgG1, kappa)
heavy 1: not shown
heavy 2: not shown
light: B1 light
notes: as for B1
B16: GpH7-A5/GpH7-B3 variant E269_15Y/GpL16-k0 (antibody, human IgG1, kappa)
heavy 1: not shown
heavy 2: not shown
light: B1 light
notes: as for B1
B17: GpH7-A5/GpH7-B3 variant I336_03V/GpL16-k0 (antibody, human IgG1, kappa)
heavy 1: not shown
heavy 2: not shown
light: B1 light
notes: as for B1
B18: GpH7-B3 variant K326_16H/GpL16-k0 (antibody, human IgG1, kappa)
heavy: not shown
light: B1 light
notes: homodimerized IgG1, mutation in both H chains; also called Ho Ab
B19: GpH7-B3 variant S298_18N/GpL16-k0 (antibody, human IgG1, kappa)
heavy: not shown
light: B1 light
notes: as for B18
B20: GpH7-B3 variant P271_07I/GpL16-k0 (antibody, human IgG1, kappa)
heavy: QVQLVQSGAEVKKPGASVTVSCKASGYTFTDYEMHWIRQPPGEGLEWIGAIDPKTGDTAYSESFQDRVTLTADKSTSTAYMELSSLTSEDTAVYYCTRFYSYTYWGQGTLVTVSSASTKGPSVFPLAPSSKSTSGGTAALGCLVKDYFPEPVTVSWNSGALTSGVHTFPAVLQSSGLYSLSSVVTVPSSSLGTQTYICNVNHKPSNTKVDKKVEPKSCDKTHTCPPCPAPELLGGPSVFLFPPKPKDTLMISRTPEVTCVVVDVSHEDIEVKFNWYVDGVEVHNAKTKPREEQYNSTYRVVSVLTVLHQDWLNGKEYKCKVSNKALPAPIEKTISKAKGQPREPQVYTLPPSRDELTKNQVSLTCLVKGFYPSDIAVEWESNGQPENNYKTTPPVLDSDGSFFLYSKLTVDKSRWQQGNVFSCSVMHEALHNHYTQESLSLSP
light: B1 light
notes: as for B18
B21: GpH7-B3 variant S298_15Y/GpL16-k0 (antibody, human IgG1, kappa)
heavy: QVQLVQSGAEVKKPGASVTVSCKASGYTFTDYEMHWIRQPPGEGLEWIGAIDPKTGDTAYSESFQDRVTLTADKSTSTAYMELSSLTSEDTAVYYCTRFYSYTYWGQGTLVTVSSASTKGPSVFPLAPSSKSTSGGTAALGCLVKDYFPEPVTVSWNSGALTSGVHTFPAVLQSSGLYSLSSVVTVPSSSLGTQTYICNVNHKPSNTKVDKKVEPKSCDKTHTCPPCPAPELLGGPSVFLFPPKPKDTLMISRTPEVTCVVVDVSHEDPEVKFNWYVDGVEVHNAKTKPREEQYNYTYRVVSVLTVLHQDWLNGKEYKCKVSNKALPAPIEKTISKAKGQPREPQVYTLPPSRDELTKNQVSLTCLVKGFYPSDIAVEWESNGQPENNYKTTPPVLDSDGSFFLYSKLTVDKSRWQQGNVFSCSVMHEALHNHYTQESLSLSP
light: B1 light
notes: as for B18
B22: GpH7-B3 variant Q295_14T/GpL16-k0 (antibody, human IgG1, kappa)
heavy: not shown
light: B1 light
notes: as for B18
B23: GpH7-B3 variant S298_10E/GpL16-k0 (antibody, human IgG1, kappa)
heavy: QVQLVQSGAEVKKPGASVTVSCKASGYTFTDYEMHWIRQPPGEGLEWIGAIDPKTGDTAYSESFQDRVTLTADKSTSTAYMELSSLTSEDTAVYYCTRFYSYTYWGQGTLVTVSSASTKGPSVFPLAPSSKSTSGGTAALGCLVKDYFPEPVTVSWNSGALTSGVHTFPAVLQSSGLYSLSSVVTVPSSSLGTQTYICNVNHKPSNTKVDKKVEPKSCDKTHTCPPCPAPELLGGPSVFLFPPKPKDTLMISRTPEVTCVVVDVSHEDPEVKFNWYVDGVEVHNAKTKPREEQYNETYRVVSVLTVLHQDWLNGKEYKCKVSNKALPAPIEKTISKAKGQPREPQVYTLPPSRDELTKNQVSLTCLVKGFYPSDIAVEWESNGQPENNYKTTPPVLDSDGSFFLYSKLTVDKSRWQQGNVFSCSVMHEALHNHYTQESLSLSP
light: B1 light
notes: as for B18
B24: GpH7-B3 variant S337_02A/GpL16-k0 (antibody, human IgG1, kappa)
heavy: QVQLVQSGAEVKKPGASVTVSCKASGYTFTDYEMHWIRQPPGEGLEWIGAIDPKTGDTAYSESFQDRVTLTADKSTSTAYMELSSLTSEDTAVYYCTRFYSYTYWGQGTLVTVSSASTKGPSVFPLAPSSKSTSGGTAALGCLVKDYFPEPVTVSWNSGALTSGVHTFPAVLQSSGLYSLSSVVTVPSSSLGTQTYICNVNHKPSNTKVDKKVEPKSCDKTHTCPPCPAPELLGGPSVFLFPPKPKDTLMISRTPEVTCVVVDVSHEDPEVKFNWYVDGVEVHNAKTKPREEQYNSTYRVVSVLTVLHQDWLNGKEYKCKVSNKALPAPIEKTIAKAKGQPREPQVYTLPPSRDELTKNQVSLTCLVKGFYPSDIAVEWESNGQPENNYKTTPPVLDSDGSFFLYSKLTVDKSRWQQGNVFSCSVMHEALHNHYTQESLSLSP
light: B1 light
notes: as for B18
B25: GpH7-B3 variant S298_16H/GpL16-k0 (antibody, human IgG1, kappa)
heavy: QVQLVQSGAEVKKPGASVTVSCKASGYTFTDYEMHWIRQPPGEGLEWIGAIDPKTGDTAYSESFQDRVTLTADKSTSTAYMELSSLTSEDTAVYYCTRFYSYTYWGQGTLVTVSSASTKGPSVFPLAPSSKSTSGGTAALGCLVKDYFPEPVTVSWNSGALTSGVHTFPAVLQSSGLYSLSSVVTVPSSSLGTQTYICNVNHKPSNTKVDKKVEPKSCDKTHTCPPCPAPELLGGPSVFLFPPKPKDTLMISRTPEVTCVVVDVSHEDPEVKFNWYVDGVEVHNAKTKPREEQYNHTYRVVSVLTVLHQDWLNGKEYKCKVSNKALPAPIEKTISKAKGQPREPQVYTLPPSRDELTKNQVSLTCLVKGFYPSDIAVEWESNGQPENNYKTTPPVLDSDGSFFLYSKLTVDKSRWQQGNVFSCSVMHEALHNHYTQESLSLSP
light: B1 light
notes: as for B18
B26: GpH7-B3 variant Q295_18N/GpL16-k0 (antibody, human IgG1, kappa)
heavy: not shown
light: B1 light
notes: as for B18
B27: GpH7-B3 variant P271_20W/GpL16-k0 (antibody, human IgG1, kappa)
heavy: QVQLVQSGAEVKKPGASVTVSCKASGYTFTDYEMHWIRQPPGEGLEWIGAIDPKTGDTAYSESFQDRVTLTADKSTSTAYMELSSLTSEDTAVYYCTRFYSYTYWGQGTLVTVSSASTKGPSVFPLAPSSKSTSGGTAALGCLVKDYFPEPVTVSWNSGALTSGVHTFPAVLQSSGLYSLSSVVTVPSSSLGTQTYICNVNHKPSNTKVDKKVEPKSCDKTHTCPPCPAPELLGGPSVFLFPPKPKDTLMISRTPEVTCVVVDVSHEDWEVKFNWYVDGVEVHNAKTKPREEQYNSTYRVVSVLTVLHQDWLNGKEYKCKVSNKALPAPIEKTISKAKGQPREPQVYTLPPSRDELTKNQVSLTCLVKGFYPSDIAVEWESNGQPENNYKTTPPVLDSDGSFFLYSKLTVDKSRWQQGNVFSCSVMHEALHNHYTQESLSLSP
light: B1 light
notes: as for B18
B28: GpH7-B3 variant S298_19Q/GpL16-k0 (antibody, human IgG1, kappa)
heavy: not shown
light: B1 light
notes: as for B18
B29: GpH7-B3 variant K334_10E/GpL16-k0 (antibody, human IgG1, kappa)
heavy: not shown
light: B1 light
notes: as for B18
B30: GpH7-B3 variant S298_14T/GpL16-k0 (antibody, human IgG1, kappa)
heavy: not shown
light: B1 light
notes: as for B18
B31: GpH7-B3 variant S298_03V/GpL16-k0 (antibody, human IgG1, kappa)
heavy: not shown
light: B1 light
notes: as for B18
B32: GpH7-B3 variant S324_02A/GpL16-k0 (antibody, human IgG1, kappa)
heavy: not shown
light: B1 light
notes: as for B18
B33: GpH7-B3 variant S337_01G/GpL16-k0 (antibody, human IgG1, kappa)
heavy: not shown
light: B1 light
notes: as for B18
B34: GpH7-B3 variant Q295_07I/GpL16-k0 (antibody, human IgG1, kappa)
heavy: not shown
light: B1 light
notes: as for B18
B35: GpH7-B3 variant S298_08L/GpL16-k0 (antibody, human IgG1, kappa)
heavy: not shown
light: B1 light
notes: as for B18
B36: GpH7-B3 variant P271_04F/GpL16-k0 (antibody, human IgG1, kappa)
heavy: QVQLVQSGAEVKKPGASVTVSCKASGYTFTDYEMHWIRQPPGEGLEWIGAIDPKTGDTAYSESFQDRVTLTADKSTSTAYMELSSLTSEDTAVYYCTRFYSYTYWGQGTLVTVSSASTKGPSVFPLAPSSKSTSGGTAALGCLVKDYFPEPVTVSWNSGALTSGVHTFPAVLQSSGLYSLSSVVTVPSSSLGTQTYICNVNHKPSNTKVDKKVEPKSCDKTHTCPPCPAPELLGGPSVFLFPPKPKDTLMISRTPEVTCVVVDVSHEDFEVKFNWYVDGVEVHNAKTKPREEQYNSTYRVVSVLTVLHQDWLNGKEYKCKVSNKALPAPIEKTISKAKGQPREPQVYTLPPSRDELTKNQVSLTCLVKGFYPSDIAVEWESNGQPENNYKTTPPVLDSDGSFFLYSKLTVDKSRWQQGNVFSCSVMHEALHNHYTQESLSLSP
light: B1 light
notes: as for B18
B37: GpH7-B3 variant P271_03V/GpL16-k0 (antibody, human IgG1, kappa)
heavy: not shown
light: B1 light
notes: as for B18
B38: GpH7-B3 variant S267_02A/GpL16-k0 (antibody, human IgG1, kappa)
heavy: not shown
light: B1 light
notes: as for B18
B39: GpH7-B3 variant S324_14T/GpL16-k0 (antibody, human IgG1, kappa)
heavy: not shown
light: B1 light
notes: as for B18
B40: GpH7-B3 variant S324_03V/GpL16-k0 (antibody, human IgG1, kappa)
heavy: not shown
light: B1 light
notes: as for B18
B41: GpH7-B3 variant S267_09D/GpL16-k0 (antibody, human IgG1, kappa)
heavy: not shown
light: B1 light
notes: as for B18
B42: GpH7-B3 variant S267_01G/GpL16-k0 (antibody, human IgG1, kappa)
heavy: not shown
light: B1 light
notes: as for B18
B43: GpH7-B3 variant P271_12R/GpL16-k0 (antibody, human IgG1, kappa)
heavy: not shown
light: B1 light
notes: as for B18
B44: GpH7-B3 variant S298_07I/GpL16-k0 (antibody, human IgG1, kappa)
heavy: not shown
light: B1 light
notes: as for B18
B45: GpH7-B3 variant Q295_05P/GpL16-k0 (antibody, human IgG1, kappa)
heavy: not shown
light: B1 light
notes: as for B18
B46: GpH7-B3 variant Q295_02A/GpL16-k0 (antibody, human IgG1, kappa)
heavy: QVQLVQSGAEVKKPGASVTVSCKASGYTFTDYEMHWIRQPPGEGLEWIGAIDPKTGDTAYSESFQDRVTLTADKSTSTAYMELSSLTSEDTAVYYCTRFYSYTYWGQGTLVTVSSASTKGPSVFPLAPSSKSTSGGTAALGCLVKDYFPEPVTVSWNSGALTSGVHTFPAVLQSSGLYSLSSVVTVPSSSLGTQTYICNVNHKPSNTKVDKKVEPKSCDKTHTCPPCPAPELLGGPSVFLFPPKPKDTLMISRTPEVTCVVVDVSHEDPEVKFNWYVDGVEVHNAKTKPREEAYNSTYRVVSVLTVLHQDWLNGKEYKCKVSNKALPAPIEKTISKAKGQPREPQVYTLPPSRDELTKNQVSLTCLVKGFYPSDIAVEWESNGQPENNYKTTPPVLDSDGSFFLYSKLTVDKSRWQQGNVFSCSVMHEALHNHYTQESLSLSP
light: B1 light
notes: as for B18
B47: GpH7-B3 variant S337_03V/GpL16-k0 (antibody, human IgG1, kappa)
heavy: not shown
light: B1 light
notes: as for B18
B48: GpH7-B3 variant S239_09D/GpL16-k0 (antibody, human IgG1, kappa)
heavy: not shown
light: B1 light
notes: as for B18
B49: GpH7-B3 variant P271_11K/GpL16-k0 (antibody, human IgG1, kappa)
heavy: not shown
light: B1 light
notes: as for B18
B50: GpH7-B3 variant S324_20W/GpL16-k0 (antibody, human IgG1, kappa)
heavy: not shown
light: B1 light
notes: as for B18
B51: GpH7-B3 variant Q295_04F/GpL16-k0 (antibody, human IgG1, kappa)
heavy: not shown
light: B1 light
notes: as for B18
B52: GpH7-B3 variant Q295_03V/GpL16-k0 (antibody, human IgG1, kappa)
heavy: not shown
light: B1 light
notes: as for B18
B53: GpH7-B3 variant P271_06M/GpL16-k0 (antibody, human IgG1, kappa)
heavy: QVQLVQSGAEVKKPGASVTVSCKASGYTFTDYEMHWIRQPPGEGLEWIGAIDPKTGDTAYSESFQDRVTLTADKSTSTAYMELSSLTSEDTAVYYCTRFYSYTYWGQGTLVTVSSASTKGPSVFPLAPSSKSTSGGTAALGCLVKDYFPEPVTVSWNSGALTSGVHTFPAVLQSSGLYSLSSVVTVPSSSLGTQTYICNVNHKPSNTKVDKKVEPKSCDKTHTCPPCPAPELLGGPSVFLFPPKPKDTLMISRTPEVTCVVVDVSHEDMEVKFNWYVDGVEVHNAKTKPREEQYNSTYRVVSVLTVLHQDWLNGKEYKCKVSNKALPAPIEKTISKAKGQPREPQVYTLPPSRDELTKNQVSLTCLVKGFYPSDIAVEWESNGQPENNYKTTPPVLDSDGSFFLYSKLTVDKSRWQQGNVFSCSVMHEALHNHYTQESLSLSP
light: B1 light
notes: as for B18
B54: GpH7-B3 variant S239_01G/GpL16-k0 (antibody, human IgG1, kappa)
heavy: not shown
light: B1 light
notes: as for B18
B55: GpH7-B3 variant S267_03V/GpL16-k0 (antibody, human IgG1, kappa)
heavy: not shown
light: B1 light
notes: as for B18
B56: GpH7-B3 variant S324_19Q/GpL16-k0 (antibody, human IgG1, kappa)
heavy: not shown
light: B1 light
notes: as for B18
B57: GpH7-B3 variant Q295_13S/GpL16-k0 (antibody, human IgG1, kappa)
heavy: not shown
light: B1 light
notes: as for B18
B58: GpH7-B3 variant P271_13S/GpL16-k0 (antibody, human IgG1, kappa)
heavy: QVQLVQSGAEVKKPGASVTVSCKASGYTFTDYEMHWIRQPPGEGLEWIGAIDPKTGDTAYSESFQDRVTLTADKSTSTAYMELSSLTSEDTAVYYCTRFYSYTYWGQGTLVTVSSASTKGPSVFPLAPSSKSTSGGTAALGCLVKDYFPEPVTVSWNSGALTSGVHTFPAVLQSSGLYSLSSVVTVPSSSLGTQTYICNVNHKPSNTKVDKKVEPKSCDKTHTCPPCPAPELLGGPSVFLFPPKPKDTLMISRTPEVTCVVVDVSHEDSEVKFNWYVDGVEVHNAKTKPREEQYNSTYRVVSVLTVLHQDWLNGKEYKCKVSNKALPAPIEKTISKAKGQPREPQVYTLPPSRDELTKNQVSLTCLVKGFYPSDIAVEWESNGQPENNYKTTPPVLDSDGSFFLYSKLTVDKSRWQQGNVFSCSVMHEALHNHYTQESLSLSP
light: B1 light
notes: as for B18
B59: GpH7-B3 variant S324_08L/GpL16-k0 (antibody, human IgG1, kappa)
heavy: not shown
light: B1 light
notes: as for B18

Target: T1, FcγRIa (human, UniProt P12314 16-292)
T1 construct: extracellular domain; soluble extracellular domain with C-terminal His tag, expressed in FreeStyle293 cells; also called FcgRI; FcgRIa
Test: SPR (Biacore), captured antibody, FcγRIa analyte; relative to HeCon Ab GpH7-A5/GpH7-B3/GpL16-k0 = 100

T1 sequence (P12314 16-292): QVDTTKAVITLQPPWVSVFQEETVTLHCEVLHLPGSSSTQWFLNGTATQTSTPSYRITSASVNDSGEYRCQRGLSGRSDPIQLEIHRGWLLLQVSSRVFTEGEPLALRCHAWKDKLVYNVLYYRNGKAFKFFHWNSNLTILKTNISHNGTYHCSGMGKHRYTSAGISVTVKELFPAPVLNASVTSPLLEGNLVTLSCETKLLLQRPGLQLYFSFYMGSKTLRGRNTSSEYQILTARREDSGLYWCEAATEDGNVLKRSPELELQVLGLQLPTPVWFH

He/Con_1a | Binder
104 % of control | B1
103 % of control | B2
106 % of control | B3
105 % of control | B4
107 % of control | B5
103 % of control | B6
106 % of control | B7
104 % of control | B8
103 % of control | B9
109 % of control | B10
109 % of control | B11
108 % of control | B12
105 % of control | B13
103 % of control | B14
104 % of control | B15
106 % of control | B16
105 % of control | B17

Target: T1, FcγRIa
Test: SPR (Biacore), captured antibody, FcγRIa analyte; relative to HoCon Ab GpH7-B3/GpL16-k0 = 100

Ho/Con_1a | Binder
101 % of control | B18
104 % of control | B19
102 % of control | B20
103 % of control | B21
102 % of control | B22
106 % of control | B23
103 % of control | B24
107 % of control | B25
101 % of control | B26
102 % of control | B27
105 % of control | B28
107 % of control | B29
106 % of control | B30
106 % of control | B31
103 % of control | B32
102 % of control | B33
101 % of control | B34
104 % of control | B35
100 % of control | B36
102 % of control | B37
108 % of control | B38

Ho/Con_1a | Binder
112 % of control | B39
103 % of control | B40
106 % of control | B41
102 % of control | B42
101 % of control | B43
103 % of control | B44
101 % of control | B45
104 % of control | B46
105 % of control | B47
101 % of control | B48
101 % of control | B49
112 % of control | B50
100 % of control | B51
102 % of control | B52
102 % of control | B53
101 % of control | B54
102 % of control | B55
111 % of control | B56
101 % of control | B57
101 % of control | B58
103 % of control | B59
